Reference: patent publication US6831161B1, “Method of affinity separation and ligands for use therein” (Affibody AB, priority 1998, dated 2004)

Key:
HSA [1] = biological target: T1, HSA (Homo sapiens, UniProt P02768); assay: Binding characteristics (BIAcore) before and after treatment with 0.5 M NaOH for 24 hours; conditions: room temperature, 800 nM on BIAcore, FIG. 5
Method: In order to examine the stability of ABDwt and ABDmut, the binding characteristics were analysed before and after treatment with 0.5 M NaOH in room temperature for 24 hours. Both ABDwt and ABDmut were solubilized in 1×HBS (10 mM HEPES, pH 7.4, 150 mM NaCl, 3.4 mM EDTA, 0.005% P20) to a concentration of 800 nM and analyzed on BIAcore 2000 (Biacore AB, Uppsala, Sweden). In order to determine the activity change after exposure to a very alkaline environment, the proteins were solubilized in 0.5 M NaOH. After incubation in NaOH for 24 hours, the samples were run through a NAP-10 column (Amersham Pharmacia Biotech, Uppsala, Sweden) equilibrated with 30 mM NH4Ac. The protein containing samples were lyophilized and resolubilised in 1×HBS to a concentration of 800 nM in order to be analyzed in the BIAcore 2000.
(§1) A BIAcore 2000 instrument (Biacore AB) was used for real time affinity analysis. HSA and IgG were immobilized on two different surfaces of a CM5 sensor chip by amine coupling to the carboxylated dextran layer. This coupling was done according to the manufacturer's recommendation (Biacore AB). The IgG surface was used as a control. The samples were run through a 0.45 μm filter and injected over the surface in a random order at a flow rate of […].

HSA [2] = biological target: T1, HSA; assay: Alkaline resistance of affinity columns: HSA capacity after repeated 0.5 M NaOH washes; conditions: ligand on Sepharose 4B; 15 cycles of 0.5 M NaOH wash, total exposure over 6 hours; FIG. 6
Method: In order to evaluate the usability of the stabilized HSA-binding protein in biotechnology, two affinity chromatography matrices were prepared; one with the unmutated protein (ABDwt) as a control and the other with the mutated ABD (ABDmut). The matrix used was Sepharose 4B (Amersham Pharmacia Biotech, Uppsala, Sweden) with carbodiimide CMC (Sigma Aldrich, Sweden) as the coupling reagent. ABDwt (4.5 mg) and ABDmut (8.5 mg) were dissolved in 9 ml water separately. 3.5 and 5.0 ml gel was added to ABDwt and ABDmut solutions respectively. Finally 0.38 g of CMC was added to the solutions and they were incubated at room temperature over night. The gels were packed on HR columns (d=5 mm, h=43 mm) and pulsed with 0.5 M ethanolamine, 0.5 M NaCl, pH 8.3 in order to inactivate the matrix and 0.1 M NaAc, 0.5 M NaCl, pH 4 in order to wash unbounded proteins out. After this, the columns were ready to use for affinity purification of HSA.
In order to explore the difference between the ABDwt column and the ABDmut column in respect of stability against alkaline treatment, both columns were repeatedly washed with 0.5 M NaOH. By using the AKTA explorer the columns were loaded with HSA, the protein was eluted by lowering the pH (Stahl et al., (1989) supra) and finally both columns were washed with NaOH. […] The flow rate used was 60 cm/h and the eluted material was collected and analyzed in each round. […]

HSA [3] = biological target: T1, HSA; assay type: binding; conditions: for Kaff (affinity constant, ratio between Kon and Koff): BIAcore 2000, HSA immobilized on CM5 chip
Description: as §1
Also, an analysis of the kinetic parameters was performed for the proteins that still remained active. This was done by analysing the binding behaviour in different concentrations and thereafter calculating the binding constants by using BIAevaluation 2.1 software (BIAcore AB). The concentrations used were 40-220 nM for ABDwt, 200-600 nM for ABDmut and 800-1250 nM for the NaOH treated ABDmut.

HSA [4] = biological target: T1, HSA; assay: HSA-binding analysis of ABDmut triple mutants on BIAcore; conditions: 200 nM, 20 μl/min, immobilised HSA on CM5 chip, FIG. 7
Description: ABDmut22-25-26, ABDmut29-30-33, and ABDmut54-57-58 proteins were produced and purified as described in Example 2. In order to analyse the binding behaviour of the different triple-mutants a BI core 2000 instrument was used. HSA was immobilised on a sensor chip surface of a CM5 sensor chip by amine coupling to the carboxylated dextran layer. As control, a sensor chip surface containing IgG was used. This coupling was done according to the manufacturers recommendation (Biacore AB). The samples of the three proteins were run through a 0.45 μm filter and injected over the surface in a random order at a flow rate of 20 μl/min. The concentration used was 200 nM and all samples were analysed three times. […] In addition, residue 62 could also be used for substitutions.

B1: ABDmut: ABD with Asn28 replaced by leucine, Asn42 by aspartic acid, Asn45 by aspartic acid and Asn46 by lysine (protein)
chain: MKAIFVLNAQHDEAVDANSLAEAKVLALRELDKYGVSDYYKDLIDKAKTVEGVKALIDEILAALP
**Q.** Which results are given for B1?
**A.** Affinity towards HSA after exposure to alkaline solution (HSA [1]): has the affinity preserved; Column activity (HSA capacity) against NaOH exposure time (HSA [2]): keeping the activity throughout the experiment; Koff (dissociation rate) (HSA [3]): 0.0012 L/s; Kon (rate at which the proteins associate) (HSA [3]): 1.8 × 10^4 l/Ms; Kaff (affinity constant, ratio between Kon and Koff) (HSA [3]): 1.5 × 10^7 l/M

B2: ABDmut22-25-26: ABDmut domain containing alanine substitutions at positions 22, 25 and 26 (protein)
chain: MKAIFVLNAQHDEAVDANSLAAAKAAALRELDKYGVSDYYKDLIDKAKTVEGVKALIDEILAALP
**Q.** B2 was tested. Which “Ability to bind HSA (sensorgrams)” value (HSA [4]) did it give?
**A.** retain their ability to bind HSA

B3: ABDmut29-30-33: ABDmut domain containing alanine substitutions at positions 29, 30 and 33 (protein)
chain: MKAIFVLNAQHDEAVDANSLAEAKVLALAALDAYGVSDYYKDLIDKAKTVEGVKALIDEILAALP
**Q.** B3 was tested. Which “Ability to bind HSA (sensorgrams)” value (HSA [4]) did it give?
**A.** retain their ability to bind HSA

B4: ABDmut54-57-58: ABDmut domain containing alanine substitutions at positions 54, 57 and 58 (protein)
chain: MKAIFVLNAQHDEAVDANSLAEAKVLALRELDKYGVSDYYKDLIDKAKTVEGVAALAAEILAALP
**Q.** How did the “Ability to bind HSA (sensorgrams)” value (HSA [4]) turn out when B4 was run?
**A.** retain their ability to bind HSA

B5: ABDwt: Wild type Albumin Binding Protein domain from Streptococcus G148 with affinity towards human serum albumin; four asparagine residues (protein)
chain: MKAIFVLNAQHDEAVDANSLAEAKVLANRELDKYGVSDYYKNLINNAKTVEGVKALIDEILAALP
**Q.** How did the “Affinity towards HSA after exposure to alkaline solution” value (HSA [1]) turn out when B5 was run?
**A.** loses the affinity towards HSA

**Q.** What about the “Koff (dissociation rate)” value (HSA [3]) of the same molecule?
**A.** 0.0013 L/s

**Q.** And the “Kon (rate at which the proteins associate)” value (HSA [3])?
**A.** 9.0 × 10^4 l/Ms

**Q.** What about the “Kaff (affinity constant, ratio between Kon and Koff)” value (HSA [3]) of the same molecule?
**A.** 6.9 × 10^7 l/M
